Results taken from the nanobody polyreactivity screen of Harvey et al. (2022).

Test: yeast display, Sf9 membrane polyspecificity reagent, FACS + sequencing; frameworks hold sequencing errors
Method in brief: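 Polyreactivity labels are assigned by the sorting gate from which each nanobody was recovered. The gates were low and high (top ~1%), set on anti-HA fluorescence for expression and streptavidin fluorescence for reagent binding. Before sorting, galactose-induced (36–48 hours) yeast display cells were stained for 1 hour at 4 °C with 10% biotinylated, detergent-solubilized Sf9 membrane reagent.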

| Sequence | polyreactivity (PSR sort gate) |
| --- | --- |
| QVQLVESGGGLVQAGGSLRLSCAASGSIFHVNAMGWYRQAPGKERELVAGISDGGSTYYADSVKGRFTISRDNAKNTVYLQMNSLKPEDTAVYYCSADDGYTYYWAGYDSWGQGTQVTVSS | low polyreactivity |
| QVQLVESGGGLVQAGGSLRLSCAASGRTFLSYAMGWSRQAPVTERELVATITRRGGSTYYADSVKGRFTISRDNAKNTVYLQMNSLKPEDTAVSYCAAYYRQYSYSEFGYWGQGTQVTVSS | high polyreactivity |
| QVQIVESGGGLVQAGGRLSLTCAASGRIFTAYAMRWYRPAPGKEREFVAAISARGGSTNYADSVKGRFTISRDNAMNTVYLQMNSLKPEDTAVYYCHARFVQWYWIGNVIHIDNDYWGQGSQVTVSS | low polyreactivity |
| QVQLVESGGGLVQAGGSLRLSCAASGSIFGAYAMGWYRQAPGKERELVAAISSGGSTYADSVKGRFTISRDNAKNTVYLQMNSMKPEDTAVYYCNAVFRARNYHYNPRRFKYYYWGQGTQVSVSS | high polyreactivity |
| QVQLVESGGGLVQAGGSLRLSCAASGRTFRAYGMGWYRQAPGKERELVAVISWRDGSTFYADSVKGRFTISRDNAKNTVYLQMNSLNPEDTAVYYCNTAYYPGNYSQYDYWGQGTQVTVSS | low polyreactivity |
| QVQLVESGGGLIQAGGSLRLSCAASGSILSDYVMAWYRQAPGKERELVAAITNDDSTNYADSVKGRFTISRDNAKNTVYLQMNSLKPEETAVYYCAAEWLVVYYISTGESYKVEFDYCGQGTQVTVSS | low polyreactivity |
| QVQLVESGGGLDQAGGSLRLSCAASGSTLGRYTMGWYRQAPGKERELVAAITRGGRTNYADSVKGRFTISRDNAKNTVYLQMNSLKPEDTAVYYCAKLYRYGDYDYWGQGTQVTVSS | high polyreactivity |
| QVQLVESGGGLVQAGGSLRLSCAASGRIFGLYAMGWYRQAPGKERELVAAITDSDGSTYYADSVKGRFTISRDNAKNTVYLQMNSLKPEDTAVYYCNKRLPLIRTSWAYDYWGQGTQVTVSS | low polyreactivity |
| QVQLVESGGGLVQAGGSLRLSCAASGRIIGFNAMGWYRQAPGKERELVASIRTTGGSTRYADSVKGRFTISRDNAKNTVYLQMNSLKPEDTAVYDCAARWGKTLWQYNYWGQGTQVTVSS | high polyreactivity |
| QVQLVESAGGLVQAGGSLRLSCAASGITFSGYAMGWYRQAPGKERELVAAISWRGVRTYYADSVKGRFTISRDNAKNTVYLQMNSLKPEDTAVYYCAAVRYITKEFYWGQGTQVTVSS | high polyreactivity |
| QVQLVESGGGLVQAGGSLRLSCAASGRIFYTNAMGCYRQAPGKERELVAAIRSGGITTYADSVKGRFTISRDNAKNTVYLQMNSLKPEDTAVYYCATRILSIYSIFGAYDYWGQGTQVTVSS | low polyreactivity |
| QVQLVESGGGLVQAGGSLRLSCAASGGTFAPNAMGWYRQAPGKEREFVAAITISGGSTYYADSVKGRFTISRDNAKNTVYLQMNSLKPEDTAVYYCAADYYAWDTYQWYDYWGQGTQVTVSS | high polyreactivity |
| QVQLVESGGRLVQAGGSLRLSGAASGITLGTYLMGWYRQAPGKEREMLAAISSGGSTYYADSVKGRFTISRDNAKNTVFLQMNSLKPEDTAVYYCAAQYYPYYDSRVSYDYWGQGTQVTVSS | low polyreactivity |
| QVQLVESGGGLVQAGGSLRLSCAASGRTFRSNAMGWYRQAPGKERELVATISGRGGSTYYADSVKGRFTISRDNAKNTVYLQMNSLKPEDTAVYYCNAYSVRLSGAELNYWGQGTQVTVSS | high polyreactivity |
| QVQLVESGGGLVQAGGSLRLSCAASGRTYSIYAMGLYRQEPGNEREMVAAISNGGRTKYADSVKGRFTISRDNAKNTVYLQMNSLKPEDTAVYYCAASSYTNKRYPSPYDYWGQGTQVTVSS | high polyreactivity |
| QVQLVESGRGLVQAGRTLRLSCAASGFIFQWYTMGWYRQAPGKDRELVADIRSGGDTNYADSVKGRFTISRDTAKNSVYLQMYSLKPEDTAVYYCATETFFPLRRASYGRKLGYWGQGTQVTVSS | low polyreactivity |
| QVQLVESGGGLVQAGGSLRLSCAASGRIFFYAMGWYRQAPGKERELVASITTSGTSTYYADSVKGRFTISRDNAKNTVYLQMNSLKPEDTAVYYCNATSNSIRWYDFYYWGQGTQVTVSS | low polyreactivity |
| QVQLVESRGGLVQAGGSLRLSCAASGSIFVWNAKGWYRQAPGKERELVAAINVRSASTFYADSVKGRFTISRDIAKNTVYLQMNSLKPEDTAVYYCATSYTKQGFRYYYWGQGTQVTVSS | high polyreactivity |
| QVQLVESGGGLVQAGGSLRLSCAASGLIFDYNAMGWYRQAPGKERELVAAISSGGSTYYADSVKGRFTISRDNAKNTVYLQMNSLKPEDTAVYYCATRRQAQYTRYYGSRQFYYWGQGTQVTVSS | high polyreactivity |
| QVHLVESGGGLVQAGGSLRLSCAASGSIFHKNAMGWYRQAPGKERELVAAITSGGTTYYADSVKGRFTISRDNAKNTVYLLMNSLKPEDTAVYYCNAAKFLYRHGFLSAGDMYYWGQGTQVTVSS | high polyreactivity |
| QVQLVESGGGVDQAGGSLRLSCAASGSIFDLNARGGYRQAPGTERELVASIRDSGGRTYYADSVKGRFTISRDNAKNTVYLQMNSLKPEDTALYYCAAKPRRPGRGYWGQGTQVTVSS | high polyreactivity |
| QVQLVESGGGLVKAGGSLRLSCAASGRTFLRNAMGWYRQAPGKERELVATITRGGSTYYADSVKGRFTISRDNAKYTCYLEIISLIPEDTAVYYCAKDITGGFRRPDYGYLGQGTQVTVSS | low polyreactivity |

| Sequence | polyreactivity (PSR sort gate) |
| --- | --- |
| QVQLVESGVGLVQAGGSLRLSCASSGRIFGHYAMGWYRQAPGTERELVAAISWRGGRTYYADSVKGRFTISRDHAKNTVYLQMNSLKPEDTAVYYCAAGSSRVFRKAGITRPSGLYYYWGQGTQVSVSS | high polyreactivity |
| QVQLVESGGGLVQAGGSLRLSCAAYGSILYVYAMGWYRQAPGKERELVAVITAGGSTNYADSVKGRFTISRDNAKNTVYLQMNSLKPEHSAVYYCAADPYSVYGGDYWGQGTQVTVSS | low polyreactivity |
| QVQLVESGGGLVQAGGSLRLSCAASGSIFFDGNAMGWYRQAPGKERELVAAISVSGGSTYYADSVKGRFTISRDNAKNTVYLQMNSVKPEDTAVYYCAKYPSKSYVPGDYWGQGTQVTVSS | low polyreactivity |
| QVQLVESGGGLVHAGGSLRLSCAAYGFIFRYYAMGRYRQAPGKEMELVATISSGGRTYYADSVKGRFTISRDNAKNTVYLQMNSLKPEDTAVYYCAKDYSWASYNHDYWGQGTQVTVSS | low polyreactivity |
| QVQLVESGGGLVQAGGSLRLTCAASGFTFGRYAMGWYRQAPGKERELVAAISTRGGSTYYADSVKGRFTISRDNAKNTVYLQMNSLKPEDTAVYYCAAGGYYVRYDYWGQGTQVTVSS | high polyreactivity |
| QVQLVESGGGLVQAGGSLRLSCAASGRTFPRYAMGWYRQAPGKERELVAAITRRGSSTYYADSVKGRFTISRDNAKNTVYLQMNSLKPEDTAVYYCATSYHGYYYRYDYWGQGTQVTVSS | high polyreactivity |
| QVQLVESGGGLVQAGGSLRLSCAASGSIFYFNAMGWYRQAPGKERELVAAISTSGGSTYADSVKGRFTISRDNAKNTVYLQMNSLKPEDTAVYYCAADYLTSRSRTFDYWGQGTQVTVSS | low polyreactivity |
| QVQLVESGGGLVQAGGSLRLSCAASGRIFTTYAMGWYRQAPGKERELVARISSGGTTYYADSVKGRFTISRDNAKNTVYLQMNSLKPEDTAVYYCNVRAVTPTRSRPFRYDYWGQGTQVTVSS | high polyreactivity |
| QVQLVESGGGLVQAGGSLRLSCAASGLIFSRNAMGRYRQAPGKERELVAAITTGGSTYYADSVKGRFTISRDNAKNTVYLQMNSLKPEDTAVYYCAAAPGYIYEYWGQGTQVTVSS | low polyreactivity |
| QVQLVESGGGLVQAGGSHRLSCAASGSTFVVYSLGWYRQAPGKERELVAAITSSGGRTYYADSVKGRFTISRDNAKNTVYLQMNSLKPDDTAVYYGNAVYSRQSSNKGEYWGQGTQVTVSW | high polyreactivity |
| QVQLVESGGGLVQAGGSLRLSCAASGFIFRDYDMGWYRQAPGKERELVPAISWRGGTYYADSVKGRFTISRDNAKNTVYLQMNSLKPEDTAVYYCNATRYRLRPSGVRYKYNYWGQGTQVTVSS | low polyreactivity |
| QVQLEESGGGLVQAGGSLRLSCAASGISFDTYAMGRNRPAPGKERELVAAMSSSGSTNYADSVKGRFTISRDNAKKTVYLQMNSLKPEDTADYYCATDYWPGTGGTYDYWGQGTQVTVSS | low polyreactivity |
| QVQLVESGGGLVQAGGSLRLSCAASGRIFQYDVMGWYRQAPGKERELVARITYNGGGTYYADSVKGRFTISRDTAKNTVYLQMNSLKPEDTAVYYCNARYPWRDWEDDYWGQGTQVTVSS | low polyreactivity |
| QVQLVESGGGLVQAGGSLRLSCAASGSIFGKYAMGWYRQAPGKERELVATINRGGGGTYYADSVKGRFTISRDNAKNTVYLQMNSLKPEDTAVYYWAVSYRSYVWYGYWGQGTQVTVSS | high polyreactivity |
| QVQLVESGGGLVQAGGSLRLSCAASGNTFAAYAMGWYRQAPGKEWELVAAITTSGGITYYADSVKGRFTISRDNAKNTVYLQMNSLKPEDTAVYYCAVDGGRWGQGTQVTVSS | low polyreactivity |
| QVQLVESGGGLVQAGGSLRLSCAASGSIFDYNAMGWYRQAPGKERELVAAINYSGTRTYYADSVKGRFTISRDNAKNTVYLQMNSLKPEDTADYYCAARVRVPQTARLHEYWGQGTQVTVSS | high polyreactivity |
| QVQLVESGGGLVQAGGSLRISCADSGSIFGYNAMGWYRQAPGKERELVAAISWSGGRTYYADSVKGRFTISRDNAKNTVSFQMNSLKPEDTAVYYCAAPSTGTYGSDYWGHGTQVTVSS | high polyreactivity |
| QVQLVESGGGLVQAGGSLRLSCAASGRIFQYYVMGWYRKAPGKERELVAAITRRGTNTYYADSVKGRFTISRDNAMNTVYLQMNSLKPEDTAVYYCAAEAQTKWWDYYYWGQGTQVTVSS | high polyreactivity |
| QVQLVESGGGLVQAGGSLRLSCAASGLIFWAYAMGWYRQAPGTDRELVAAINWRGGSTYYADSVKGRFTISRDTAKNTVYLQMNSLKPEDTAVYYCAADSYYDEYDYWGQGTQVTVSS | low polyreactivity |
| QVQLVESGGGLVQAGGSLRLSCAASGRIFYSYAMGWYRQAPGKERELVAAITRTGGNTYYADSVKGRFTISRDNAKNTVYLQMNSLKPEDTAVYYCNAEYWKEHYPEIYYSWGQGTQVTVSS | low polyreactivity |
| QVQLVESGGGLVQAGGSLRLSCAASGSIFGYYAMGWYRQAPGKERELVADITVRGGSTYYADSVNGRFTISRDNAKNTVYLQMNSLKPEDTAVYYCAKRFKYIYYWGQGTQVTVSS | high polyreactivity |
